# Substitutions are numbered along the chain they refer to.
# B1: Anti-CD3 Fab-001 (Fab, V domains shown)
# VH: EVQLVESGGGLVQPGGSLRLSCAASGFTFNTYAMNWVRQAPGKGLEWVARIRSKYNNYATYYADSVKDRFTISRDDSQSILYLQMNSLKTEDTAVYYCVRHGNFGNSYVSWFAYWGQGTLVTVSS
# VL: QAVVTQEPSLTVSPGGTVTLTCRSSTGAVTTSNYANWVQQKPDHLPRALIGGTNKRAPGTPARFSGSLLGDKAALTLSGVQPEDEAEYYCALWYSNLWVFGGGTKLTVL
# B2: Anti-CD3 Fab-002 (Fab, V domains shown)
# VH: B1 VH with A49G, D68G, Q78K, S79N, I80S, V99A
# VL: B1 VL with T60V, L77I, V80A, E87I
# Key:
# [1] = target: human recombinant CD3 δε heterodimer (human) (UniProt P07766); assay: SPR (Biacore 8K), Fab captured, CD3 δε heterodimer as analyte
# Chain of human recombinant CD3 δε heterodimer (human) (P07766 23-126, stated change not applied, chain 1 of 2): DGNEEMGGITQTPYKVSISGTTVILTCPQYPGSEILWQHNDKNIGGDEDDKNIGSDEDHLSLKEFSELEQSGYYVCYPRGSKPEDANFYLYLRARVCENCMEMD
# Chain of human recombinant CD3 δε heterodimer (human) (P04234 22-105, stated change not applied, chain 2 of 2, further chain): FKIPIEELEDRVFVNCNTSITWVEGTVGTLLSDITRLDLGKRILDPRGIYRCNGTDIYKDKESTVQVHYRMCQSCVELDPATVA
# [2] = target: cynomolgus monkey recombinant CD3 δε heterodimer (cynomolgus) (UniProt Q95LI5); assay: SPR (Biacore), Fab captured on anti-human Fab chip, cyno CD3 δε heterodimer as analyte, 1:1 binding fit
# Chain of cynomolgus monkey recombinant CD3 δε heterodimer (cynomolgus) (Q95LI5 22-117, stated change not applied, chain 1 of 2): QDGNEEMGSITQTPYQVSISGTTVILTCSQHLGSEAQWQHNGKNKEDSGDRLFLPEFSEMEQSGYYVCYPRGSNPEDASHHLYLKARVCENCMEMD
# Chain of cynomolgus monkey recombinant CD3 δε heterodimer (cynomolgus) (Q95LI8 22-105, stated change not applied, chain 2 of 2, further chain): as the sequence (P04234 22-105, stated change not applied, chain 2 of 2, further chain) above, with I5V, N15K, I20V, S32T, D33N, I34N, T64A, S74N, V83L counted along it
# [3] = target: human recombinant CD3 δε heterodimer (human) (UniProt P07766); assay: SPR (Biacore), Fab captured on anti-human Fab chip, human CD3 δε heterodimer as analyte, 1:1 binding fit
Binder,Kd [1] [nM],Kd [2] [nM],koff [2] [s⁻¹],kon [2] [M⁻¹ s⁻¹],kon [3] [M⁻¹ s⁻¹]
B1,29,28.4,0.00448,158000,162000
B2,46,71.8,0.0113,157000,433000

# — US20250109206A1
